Laboratory results: the supplement of paper PMC9876800

Tested on: peptide library, one residue held at a place counted from the S/T acceptor
Test: relative phosphorylation of the sub-library (ratio to the mean residue at this position); higher = residue favoured
Details: human
Summary of the method: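 Human or orthologue kinase constructs, purified and recombinant, were incubated under kinase-specific conditions in 384-well plates with biotinylated degenerate peptide sub-libraries. Each sub-library fixed one residue at one position around a central Ser/Thr. Incubations lasted 90 min with peptides at 50 μM and 50 μM ATP spiked with γ-32P-ATP, after which spots on streptavidin membranes were phosphorimaged and quantified by densitometry. Relative sub-library phosphorylation is a ratio to the mean residue at that position.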

Sequence of DCLK2, construct: aa1-690 (Q8N568 1-690, looked up): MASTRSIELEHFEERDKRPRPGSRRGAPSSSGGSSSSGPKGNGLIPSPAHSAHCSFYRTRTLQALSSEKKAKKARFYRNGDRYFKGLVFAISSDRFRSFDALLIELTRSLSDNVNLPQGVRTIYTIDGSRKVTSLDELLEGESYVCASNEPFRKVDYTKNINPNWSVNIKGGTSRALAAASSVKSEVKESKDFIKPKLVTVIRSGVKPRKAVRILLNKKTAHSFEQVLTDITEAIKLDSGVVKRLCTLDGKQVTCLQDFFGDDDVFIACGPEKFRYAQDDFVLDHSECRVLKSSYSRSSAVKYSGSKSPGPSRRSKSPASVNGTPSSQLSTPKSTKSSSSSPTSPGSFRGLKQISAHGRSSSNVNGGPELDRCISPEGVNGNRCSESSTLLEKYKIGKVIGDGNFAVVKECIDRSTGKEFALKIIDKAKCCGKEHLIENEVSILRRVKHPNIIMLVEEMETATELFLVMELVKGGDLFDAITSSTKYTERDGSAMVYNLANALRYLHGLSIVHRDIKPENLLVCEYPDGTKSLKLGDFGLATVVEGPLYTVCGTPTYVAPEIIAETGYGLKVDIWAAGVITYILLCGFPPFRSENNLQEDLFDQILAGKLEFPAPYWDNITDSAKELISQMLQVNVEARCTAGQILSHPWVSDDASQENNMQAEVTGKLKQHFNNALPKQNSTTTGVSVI
Sequence of STK25, construct: Full length (O00506 whole entry, looked up): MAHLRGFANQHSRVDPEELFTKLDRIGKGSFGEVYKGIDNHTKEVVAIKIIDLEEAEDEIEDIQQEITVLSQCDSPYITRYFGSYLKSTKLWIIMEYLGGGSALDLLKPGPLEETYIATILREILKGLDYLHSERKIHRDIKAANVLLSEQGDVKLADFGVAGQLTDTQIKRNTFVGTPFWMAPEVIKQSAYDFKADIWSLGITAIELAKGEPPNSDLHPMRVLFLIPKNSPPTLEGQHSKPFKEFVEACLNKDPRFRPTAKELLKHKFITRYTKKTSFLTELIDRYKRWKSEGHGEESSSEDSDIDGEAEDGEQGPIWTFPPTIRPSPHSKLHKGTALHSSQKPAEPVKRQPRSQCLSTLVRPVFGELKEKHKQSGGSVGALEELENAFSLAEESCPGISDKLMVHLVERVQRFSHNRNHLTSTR

STK25, construct: Full length (from UniProt O00506)
relative phosphorylation
Details	at +1	at +2	at +3	at +4	at -1	at -2	at -3	at -4	at -5
A fixed	0.561	0.853	0.857	0.981	0.996	1.07	0.986	1	1.24
D fixed	0.151	0.326	0.447	0.515	0.772	0.464	0.671	0.752	0.774
E fixed	0.166	0.195	0.404	0.454	0.538	0.398	0.604	0.865	0.682
F fixed	1.28	0.564	1.01	0.718	0.756	1.19	0.875	0.975	0.922
G fixed	0.443	1.13	1.17	1.12	1.98	1.26	1.27	1.1	1.21
H fixed	0.884	1.24	1.07	1.2	1.3	1.43	1.24	1.11	1.15
I fixed	1.87	0.572	0.895	0.845	0.453	0.86	0.777	0.775	0.801
K fixed	0.669	2.4	1.64	2.01	1.23	1.04	1.31	1.28	1.52
L fixed	1.56	0.486	0.865	0.743	0.901	0.791	0.844	0.8	0.758
M fixed	1.89	0.735	0.926	0.822	1.14	0.879	0.974	0.99	0.899
N fixed	0.474	1.08	0.985	0.919	1.26	1.01	1.13	1.03	0.902
P fixed	0.175	0.616	0.787	1.11	0.599	0.693	0.876	0.871	1
Q fixed	0.683	0.785	0.819	0.856	0.795	0.773	0.865	0.868	0.846
R fixed	0.947	3.75	2.26	2.19	1.66	1.25	1.38	1.3	1.38
V fixed	1.59	0.626	0.829	0.718	0.462	0.78	0.711	0.849	0.848
W fixed	2.17	0.772	0.979	0.943	0.862	1.33	1.26	1.25	1.02
Y fixed	1.48	0.872	1.06	0.852	1.3	1.79	1.23	1.18	1.05
pThr fixed	0.459	0.376	0.534	0.435	0.45	0.615	0.774	0.98	0.918
pTyr fixed	0.327	0.223	0.456	0.372	0.866	0.691	0.858	0.837	0.866

DCLK2, construct: aa1-690 (from UniProt Q8N568)
relative phosphorylation
Details	at +1	at +2	at +3	at +4	at -1	at -2	at -3	at -4	at -5
A fixed	0.573	0.702	0.791	0.84	0.731	1.26	0.798	1.03	0.816
D fixed	0.373	0.373	0.673	0.855	0.669	0.725	0.372	0.573	0.437
E fixed	0.414	0.304	0.701	0.838	0.436	1.56	0.427	0.748	0.4
F fixed	3.73	1.72	1.17	1.22	0.853	0.659	0.406	0.988	1.55
G fixed	0.532	0.412	0.887	0.922	1.31	1.08	0.589	1.11	0.76
H fixed	0.815	1.63	1.19	0.987	1.2	0.934	0.831	1	0.907
I fixed	0.918	1.35	0.815	0.917	0.522	0.437	0.33	0.885	1.1
K fixed	1.18	0.639	1.35	1.28	2.27	1.9	3.49	1.8	1.36
L fixed	0.882	1.26	1.09	1.16	0.884	0.687	0.436	0.99	1.47
M fixed	1.4	1.07	1.02	1.12	0.804	0.909	0.484	0.947	1.15
N fixed	0.77	0.49	0.91	0.93	1.16	1.1	0.581	0.784	0.649
P fixed	0.371	0.522	0.727	1.19	0.981	0.423	0.701	0.977	0.946
Q fixed	0.915	0.531	0.947	1.01	0.863	1.79	0.787	1.04	0.802
R fixed	0.903	0.554	1.37	1.05	2.06	1.65	5.46	1.32	1.44
V fixed	0.702	1.1	0.923	0.758	0.554	0.462	0.315	0.941	0.923
W fixed	1.22	1.42	1.27	1.09	0.621	0.725	0.549	0.914	1.17
Y fixed	1.3	2.91	1.17	0.846	1.09	0.695	0.447	0.942	1.12
pThr fixed	0.782	0.935	1.04	0.993	0.455	0.391	0.374	0.652	0.506
pTyr fixed	0.776	7.04	1.07	0.687	0.515	0.367	0.298	0.548	0.576
